Data reported in patent US20250019427A1 (BYOMASS, published 2025).
Several values for one entry are separate records, joined by “and”; a condition that tells them apart may be missing. Identical values can stand only once.

T1: GDF15 (Homo sapiens (Human), UniProt Q99988 30-308)
T1 sequence: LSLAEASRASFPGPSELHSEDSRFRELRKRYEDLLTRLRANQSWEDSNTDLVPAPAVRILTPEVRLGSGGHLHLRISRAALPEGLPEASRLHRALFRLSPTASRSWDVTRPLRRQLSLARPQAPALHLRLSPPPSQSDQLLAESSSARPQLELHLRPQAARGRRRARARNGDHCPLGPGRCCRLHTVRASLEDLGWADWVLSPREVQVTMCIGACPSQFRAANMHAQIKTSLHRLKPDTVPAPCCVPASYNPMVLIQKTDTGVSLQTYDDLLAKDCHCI

T2: Mouse GDF15 Fc (mouse, UniProt Q9Z0J7 189-303, limits assumed)
T2 construct: also called mouse GDF15Fc fusion
T2 sequence (looked up): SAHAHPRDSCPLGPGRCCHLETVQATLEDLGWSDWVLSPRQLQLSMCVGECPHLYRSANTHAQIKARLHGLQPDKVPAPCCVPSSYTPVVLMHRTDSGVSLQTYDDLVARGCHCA

T3: Human Activin A Fc (human, UniProt P08476 311-426)
T3 sequence (looked up): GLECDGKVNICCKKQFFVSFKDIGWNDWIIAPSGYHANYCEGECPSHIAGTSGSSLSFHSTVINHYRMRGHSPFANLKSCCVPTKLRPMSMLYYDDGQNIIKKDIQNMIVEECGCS

T4: Human BMP10 (human, UniProt O95393 317-424)
T4 sequence (looked up): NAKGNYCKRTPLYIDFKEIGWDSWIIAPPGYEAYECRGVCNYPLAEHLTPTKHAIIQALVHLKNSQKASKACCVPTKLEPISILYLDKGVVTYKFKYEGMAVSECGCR

T5: Human Activin B (human, UniProt P09529 293-407)
T5 construct: Also used for the Activin B ligand of the ActRIIB/SMAD reporter assay, where the species is not restated
T5 sequence (looked up): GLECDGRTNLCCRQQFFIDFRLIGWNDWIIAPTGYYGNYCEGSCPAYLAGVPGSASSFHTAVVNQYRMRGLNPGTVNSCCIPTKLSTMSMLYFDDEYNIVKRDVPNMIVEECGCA

T6: GDNF (UniProt P39905 78-211)
T6 sequence (looked up): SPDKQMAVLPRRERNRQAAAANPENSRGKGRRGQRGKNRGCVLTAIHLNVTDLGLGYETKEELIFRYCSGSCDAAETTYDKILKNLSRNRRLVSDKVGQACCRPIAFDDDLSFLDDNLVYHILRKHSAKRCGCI

T7: Cyno GDF15 Fc (cyno, UniProt G7PWZ3 193-308)
T7 construct: also called cyno GDF15-Fc fusion
T7 sequence: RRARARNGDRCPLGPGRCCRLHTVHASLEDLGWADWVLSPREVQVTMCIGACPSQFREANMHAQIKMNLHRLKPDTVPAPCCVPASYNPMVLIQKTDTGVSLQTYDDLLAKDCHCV


What was measured:
GDF15 = target: T1, GDF15; assay: cell-based or functional assay
Mouse GDF15 Fc = target: T2, Mouse GDF15 Fc; assay: Octet BLI, Fab monovalent
GDF8 = GDF8 (UniProt O14793 267-375); assay: Octet BLI, IgG on tip, avid
Human Activin A Fc = target: T3, Human Activin A Fc; assay: Octet BLI, IgG on tip, avid
Human BMP10 = target: T4, Human BMP10; assay: Octet BLI, IgG on tip, avid
Human Activin B = target: T5, Human Activin B; assay: Octet BLI, IgG on tip, avid
GDF11 = target: T8, GDF11 (UniProt O95390 299-407); assay: Octet BLI, IgG on tip, avid
T8 construct: Also the GDF-11 ligand of the ActRIIB/SMAD reporter assay
T8 sequence (O95390 299-407 limits assumed): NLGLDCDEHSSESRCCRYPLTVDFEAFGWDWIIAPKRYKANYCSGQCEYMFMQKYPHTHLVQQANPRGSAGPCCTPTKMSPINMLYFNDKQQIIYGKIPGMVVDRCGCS

GDNF = target: T6, GDNF; assay: Octet BLI, IgG on tip, avid
Cyno GDF15 Fc = target: T7, Cyno GDF15 Fc; assay: Octet BLI, Fab monovalent

Row | Binder | GDF15 GFRAL RET pERK Fab IC50 pM (GDF15) | Kd (Mouse GDF15 Fc) [nM] | Kd (Cyno GDF15 Fc) [nM] | other results
1 | Clone N Fab (Fab, V domains shown, Fab format) VH: QVQLVQSGAEVKKPGASVKVSCKASGYTFTDYGIFWVRQAPGQGLEWMGWITAYSGDTHYAQKLQGRVTMTTDTSTSTAYMELRSLRSDDTAVYYCVRDTQYGGSPYWGQGTLVTVSS VL: EIVMTQSPATLSVSPGERATLSCRASQSVSSNLAWYQQKPGQAPRLLIYGASTRATGIPARFSGSGSGTEFTLTISSLQSEDFAVYYCQQYNNWPITFGGGTKVEIK | 322 pM | 2.56 |  | 
2 | Clone F IgG (antibody, V domains shown, IgG format) VH: QVQLVQSGAEVKKPGSSVKVSCKASGGTFGGYAISWVRQAPGQGLEWMGGIIPPYATANYAQKFQGRVTITADESTSTAYMELSSLRSEDTAVYYCARGVGTTHLDVWGQGTMVTVSS VL: not shown |  |  |  | binding result (GDF8): no binding (tested: 100 nM); binding result (Human Activin A Fc): no binding (tested: 100 nM); binding result (Human BMP10): no binding (tested: 100 nM); binding result (Human Activin B): no binding (tested: 100 nM); binding result (GDF11): no binding (tested: 100 nM); binding result (GDNF): no binding (tested: 100 nM); GDF15 - GFRAL RET pERK IC50 (pM) (GDF15): 34.9 pM; GDF15 - GFRAL-RET Luciferase IC50 (pM) (GDF15): 91.3 pM
3 | Clone F Fab (Fab, V domains shown, Fab format) VH: QVQLVQSGAEVKKPGSSVKVSCKASGGTFGGYAISWVRQAPGQGLEWMGGIIPPYATANYAQKFQGRVTITADESTSTAYMELSSLRSEDTAVYYCARGVGTTHLDVWGQGTMVTVSS VL: not shown | 11.2 pM | 26.1 | 0.553 | 
4 | Clone G Fab (Fab, V domains shown, Fab format) VH: QVQLVQSGAEVKKPGSSVKVSCKASGGTFQGYAISWARQAPGQGLEWMGGIIPPYATANYAQKFQGRVTITADESTSTAYMELSSLRSEDTAVYYCARGVGELHLDVWGQGTMVTVSS VL: not shown | 33.2 pM |  | 0.474 | 
5 | Clone E Fab (Fab, V domains shown, Fab format) VH: QVQLVQSGAEVKKPGASVKVSCKASGYTFTSYGINWVRQAPGQGLEWMGWITAYSGDTNYAQKLQGRVTMTTDTSTSTAYMELRSLRSDDTAVYYCARGPGQYADVDVWGQGTMVTVSS VL: DIQMTQSPSSVSASVGDRVTITCRASQGISSWLAWYQQKPGKAPKLLIYAASSLQSGVPSRFSGSGSGTDFTLTISSLQPEDFATYYCQQANSFPITFGGGTKVEIK | 46.7 pM | 3.08 | 0.413 | 
6 | Clone O Fab (Fab, V domains shown, Fab format) VH: QVQLVQSGAEVKKPGATVKVSCKASGYTFDSLGMSWVRQAPGQGLEWMGYISTYSGDTVYAQKLQGRVTMTTDTSTSTAYMELRSLRSDDTAVYYCARESGQQVSALDPWGQGTLVTVSS VL: DIQMTQSPSSVSASVGDRVTITCRASQGISRWLAWYQQKPGKAPKLLIYAASSLQSGVPSRFSGSGSGTDFTLTISSLQPEDFATYYCQQGASFPLTFGGGTKVEIK |  | 11.6 | 0.277 | 
7 | Clone P Fab (Fab, V domains shown, Fab format) VH: QVQLVQSGAEVKKPGATVKVSCKASGYTFDSYGIHWVRQAPGQGLEWMGWITAYSGDTVYAQKLQGRVTMTTDTSTSTAYMELRSLRSDDTAVYYCARESGQTSSALGPWGQGTLVTVSS VL: DIQMTQSPSSVSASVGDRVTITCRASQGISRWLAWYQQKPGKAPKLLIYAASSLQSGVPSRFSGSGSGTDFTLTISSLQPEDFATYYCQQGASFPLTFGGGTKVEIK | 701 pM and 1000 pM |  | 1.72 | 
8 | Clone J Fab (Fab, V domains shown, Fab format) VH: QVQLVQSGAEVKKPGASVKVSCKASGYTFTSYGINWVRQAPGQGLEWMGWIDAYSGSTNYAQKLQGRVTMTTDTSTSTAYMELRSLRSDDTAVYYCARGPGQYADVDVWGQGTMVTVSS VL: DIQMTQSPSSVSASVGDRVTITCRASQGISSWLAWYQQKPGKAPKLLIYAASSLQSGVPSRFSGSGSGTDFTLTISSLQPEDFATYYCQQANSFPITFGGGTKVEIK | 75.1 pM |  | 0.769 | 
9 | Clone I Fab (Fab, V domains shown, Fab format) VH: QVQLVQSGAEVKKPGASVKVSCKASGYTFTDEGINWVRQAPGQGLEWMGWITAYSGDTVYAQKLQGRVTMTTDTSTSTAYMELRSLRSDDTAVYYCARGPGQYADVDVWGQGTMVTVSS VL: DIQMTQSPSSVSASVGDRVTITCRASQGISSWLAWYQQKPGKAPKLLIYAASSLQSGVPSRFSGSGSGTDFTLTISSLQPEDFATYYCQQANSFPITFGGGTKVEIK | 111 pM | 1.45 | 1.38 | 
10 | Clone S Fab (Fab, V domains shown, Fab format) VH: QVQLVQSGAEVKKPGASVKVSCKASGYTFTSYGINWVRQAPGQGLEWMGWITAYSGDTNYAQKLQGRVTMTTDTSTSTAYMELRSLRSDDTAVYYCARGPGQYADVDVWGQGTMVTVSS VL: DIQLTQSPSSVSASVGDRVTITCRASQGISPWLAWYQQKPGKAPKLLIYAASSLQSGVPSRFSGSGSGTDFTLTISSLQPEDFATYYCQQANSFPITFGGGTKVEIK |  | 1.36 | 0.252 | 
11 | Clone T Fab (Fab, V domains shown, Fab format) VH: QVQLVQSGAEVKKPGASVKVSCKASGYTFTSYGINWVRQAPGQGLEWMGWITAYSGDTNYAQKLQGRVTMTTDTSTSTAYMELRSLRSDDTAVYYCARGPGQYADVDVWGQGTMVTVSS VL: DIQMTQSPSSVSASVGDRVTITCRASQGISSWLAWYQQKPGKAPKLLIYAASSLQSGVPSRFSGSGSGTDFTLTISSLQPEDFATYYCQQASQFPITFGGGTKVEIK |  | 1.92 | 0.369 | 
12 | Clone B Fab (Fab, V domains shown, Fab format) VH: QVQLQESGPGLVKPSQTLSLTCTVSGGSISSGGIYWTWIRQHPGKGLEWIGAIAYSGSTYYNPSLKSRVTISVDTSKNQFSLKLSSVTAADTAVYYCARGIEYQHFDYWGQGTLVTVSS VL: not shown | 30.9 pM |  | 0.349 | 
13 | Clone D Fab (Fab, V domains shown, Fab format) VH: QVQLQESGPGLVKPSQTLSLTCTVSGGSINSGGYYWTWIRQHPGKGLEWIGAIYYSGSTVYNPSLKSRVTISVDTSKNQFSLKLSSVTAADTAVYYCARGVEYQHFNEWGQGTLVTVSS VL: not shown | 27 pM | 157 | 0.562 | 
14 | Clone R Fab (Fab, V domains shown, Fab format) VH: QVQLQESGPGLVKPSQTLSLTCTVSGGSISSGGIYWTWIRQHPGKGLEWIGAIAYSGSTYYNPSLESRVTISVDTSKNQFSLKLSSVTAADTAVYYCARGIEYQHFDYWGQGTLVTVSS VL: not shown |  | 234 | 0.366 | 
15 | Clone A Fab (Fab, V domains shown, Fab format; also called Fab of Clone A) VH: QVQLQESGPGLVKPSQTLSLTCTVSGGSITSGGSYWSWIRQHPGKGLEWIGAIVYSGSTYYNPSLKSRVTISVDTSKNQFSLKLSSVTAADTAVYYCARGVEYQHFDYWGQGTLVTVSS VL: not shown | 26.5 pM |  | 0.536 | 
16 | Clone Q Fab (Fab, V domains shown, Fab format) VH: QVQLQESGPGLVKPSQTLSLTCTVSGGSISSGGIYWTWIRQHPGKGLEWIGAIAYSGSTYYNPSLKSRVTISVDTSKNQFSLKLSSVTAADTAVYYCARGIEYQHFDYWGQGTLVTVSS VL: not shown |  | 204 | 0.327 | 
17 | Clone C Fab (Fab, V domains shown, Fab format; also called Fab of Clone C) VH: QVQLQESGPGLVKPSQTLSLTCTVSGGSISSGGYYWSWIRQHPGKGLEWIGAIVYSGHTYYNPSLKSRVTISVDTSKNQFSLKLSSVTAADTAVYYCARGVEYQHFSLWGQGTLVTVSS VL: not shown | 36.8 pM | 156 | 0.36 | 
